Results: FireProtDB (doi:10.1110/ps.5101)

Conditions: Pseudomonas aeruginosa (strain ATCC 15692 / DSM 22644 / CIP 104116 / JCM 14847 / LMG 12228 / 1C / PRS 101 / PAO1); pH 7; 10 °C; GdnHCl; Fluorescence; sodium phosphate 50 mM; reversible: yes; whole UniProt chain shown

B1: Cytochrome c-551 wild type, P00099 (protein)
chain: MKPYALLSLLATGTLLAQGAWAEDPEVLFKNKGCVACHAIDTKMVGPAYKDVAAKFAGQAGAEAELAQRIKNGSQGVWGPIPMPPNAVSDDEAQTLAKWVLSQK
In the case of B1, the denaturant m value is reported as 3.3 kcal/mol/M, the “denaturant midpoint (higher = more stable)” value is reported as 1.8 M and the unfolding free energy is reported as 6.1 kcal/mol.
